The nanobody polyreactivity screen of Harvey et al. (2022)

Assay: yeast display, Sf9 membrane polyspecificity reagent, FACS + sequencing; frameworks hold sequencing errors
Procedure, shortened: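 Using colony PCR, genes from sorted yeast display clones were amplified, then sequenced on MiSeq at 2 × 250 and filtered by CDR length. The clones had been stained with 10% biotinylated, detergent-solubilized Sf9 membrane reagent for 1 hour at 4 °C and sorted by FACS into low and high (top ~1%) gates on anti-HA and streptavidin fluorescence. Polyreactivity labels come from the gate of origin.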

Sequence	polyreactivity (PSR sort gate)
QVQLVESGGGLVQAGGSLRLSCAASGFIFVYYAMGWYRQAPGKERELVAAISGHGGRTYYADSVKGRFTISRDNAKNTVYLQLNSLKPEDTAVYYCAALLYWRGYGYNYWGQGTQVTVSS	high polyreactivity
QDQLVESGGGLVHAGGSLRLSCAASVSTFTRYDMGRYRQAPGKERELVDAISWSGGRTHYADSVKGRFTISRENAKNTVYLQMNSLKPEDTAVYYCNTLYDYWYDYWGQGSQVTVSS	low polyreactivity
QFQLVESGGGLVQAGGSLRLSCAASGSTFSANAMGWYRQAPGKERELVASISRRGGSTYYADSVKGRFTISRDIAKNTVYLQMNSLKPEDTAVYYCNKRFARQGSPSEYGRSQIGYYYWGQGTQVTVSS	high polyreactivity
QVQLVESVGGLVQAGGSLRLSCPASGSIFGPYAMGWYRQAPGKERELVAAMTIGGDNTYYADSVKGRFTISRDNAKNTVYLQMNSLKPEDTAVYYCAAKYYGGKPHYYEYYYWGQGTQVTVSS	low polyreactivity
QVQLGESGGGLVQAGGSLRLSCAASGRTFSYYAKGWNRPAPGKERELVGAISSTGGSTYYADSVKGRFTISRDNAKNTVYLQMNSLKPEDTAVYYCAARWYVLYYRGGYCGQGTQVTVSS	low polyreactivity
QVQLVESRGGLVQAGGSHRLSCAASGITILQYAMGWYRQAPRKERELVAAISRRGGNTYYADSVKGRFTISRDNAKNTVYLQMNSLKPEDTAVYYCAALSSFQSEYDYWGQGTQLTVSS	high polyreactivity
QVQLVESGGGLVQAGGSLRLSCAASGFIFRGNGMGWYRQAPGNERELVAAISKSGGRTYYADSVKGRFTISRDNAKNTVYLQMNSLKPEDTAVYYCNARRFWRGDYWGQGTQVTVSS	high polyreactivity
QVQLVESGGGLVQAGGSLRLSCAASGFTFSSYAMGWYRQAPGKERELVAAITQSGGRTYYADSVKGRFTISRDNAKNTVYLQMNSLKPEDTADYYCAADVTLWYDYWGQGTQVTVSS	low polyreactivity
QVQLVESGGGLVQAGGSLRLSCAASGRIFSLYAMGWYRQAPGKERELVAAISWSGGTTYYADSVKGRFTISRDNAKNTVYLQMNSLKPEDTAVYYCAADTGTGLDWGQGSQVTVSS	high polyreactivity
QVQLVESGGGLVQAGGSLRLSCAASGSTFYGNAMAWYRQAPGKEREFVAAISSGGRTYYADSVKGRFTISRDNAKNTVYLQMNSLKPEDTAVYYCAVRRSAFYARFGRNYWGQGTQVTVSS	low polyreactivity
QVQLVESGGGVVQAGGSLRLSCAATGSTFWWYAMGWYRQAPGKERELVADITTGGSTNYADSVKGRFTISRDNAKNTVYLQMNSLKPEDTAVYYCNADGVTPYTWRLRYFKYHFDYWGQGTQVTVSW	low polyreactivity
QVQLVESGGGLVQAGGSLRLSCAASGSTFNSNVMGWYRQAPGKERELVAAISRSGGNTYYADSVKGRFTISRDNAKNTVYLQMNSLKPEDTAVYYCNKAGRYPYDYWGQGTQVTVSS	high polyreactivity
QDQLVESGGGLVQAGGILSLSCAASGSTFSYYAMGWYRQAPGTETELVAAISSRGGSTYYADSVKGRFTISRDNAKNPVYLQMNSLNPEDTAVDYCNADHKFRSSVSGDHDYWGQGTQVTVSS	high polyreactivity
QVQLVESGGGLVQAGGSLRLSCAASGSTFYYNVMGSYRQAPGKERELVAAITLSGGSTYADSVKGRFTISRDNAKKTVYLQINSLKPEDTAVYYCAKKGRYGRWGYKFDYWGQGTQVTVSS	low polyreactivity
QVQLVESGGGLVQAGGSLRLSCAASGFTFFLNAMGWYRQAPGKERELVAAINRSGGSTYYADSVKGRFTISRDNAKNTVYLQMNSLKPEDTAVYYCATYSFWHYAYDYWGQGTQVTVSS	low polyreactivity
QVQLEESGGGLVQAGGSLRLSCAASGGTFDYYAMGWYRQAPRKERELVAVINWSGGRTYYADSVKGRFTISRDNAKNTVYLQMNSLKPEDTAVYYCAAQRPPGQTWNRDYWGQGTQVTVSS	high polyreactivity
QVQLVESGGGLVQAGGSLRLSCAASGSIFDPYAMGWYRQAPGKERELVAAIRWGGGTTYYADSVKGRFTISRDNSKITVSLQMNSLKPEDTAVYYCAASWDWYDYWYDYWGQGTQVTVSS	high polyreactivity
QVHLVESGGGLVQAGGSLRLSCSASGSILKYYAMGWYRQAPGKERELVAAISRSGGSTYYADSVKGRFTISRDNAKNTVYLHMNSLKPEDTAVYYCAAYYNFPYHGSDYWGQGTEVTVSS	high polyreactivity
QVQLVESGGGLVQAGGSLRLSCAASGRIFVKYAMGWYRQAPGKERELVARITRGGRTNYADSVKGRFTISRDNAKNTVYLQMNSLKPEDTAVYYCNAGWGMRLSWLGNYWGQGTQVTVSS	high polyreactivity
QVQLVESGGGLVQAGGILRLSCAASGSTFAYNAMGWYRQEPGKERELFAAISWSGGTTYYADSVKGRFTISRDNAKTTVYLQMNSLKPEDTAVYYCNAVYYPSYQQVRAHDYWGQGTQVTVSS	high polyreactivity
QVQLVESGGGLVQAGGSLRLSCAASGSIFSYYAMAWYRHAPGKEREMVAAITSGGATTYYADSVKGRFTISRDNAKNTVYLQMNSLKQEDTAVYFCAAGYYVYFRWWELDYWGQGTQVTVSS	low polyreactivity
QVQLQESGGGQVLAGGSLRVSCAASGYIPYSRWMGWNRQAPGKEREFVAGIGYGSSTYYADSVKGRFTISRDNAKNTVYLQMNSLKPEDTAVYYCNASIFFRRNVTQVRMDYWGQGSQVTVSS	high polyreactivity

Sequence	polyreactivity (PSR sort gate)
QVQLVESGGGLFQAGGSLRLSCAASGRIFGNNTMGWYRQAPGKERELVAAINSGGRTYYADSVKGRFTISRDNAKYTVYLQMNSLKTEDTAVYYCATTTYKRFYRAPTSKYDYWGQGTLVTVSS	high polyreactivity
QVQLLESGGGLVQAGGSLRLSCAAYGFIFVSNGMGWYRQAPGKEREFVASITSIGGSTYYADSVKGRFTISRDNAKNTVYLQMNSLKPEDTAVYYCAARDIALNAVGRPKEYNRDYWGQGTQVTVSS	low polyreactivity
QVQLVESGGGLVQAGGSLRLSCAASGRIFWPNAMGWYRQAPGKERELVAAISYSGGSTYYADSVKGRFTISRDNAKNTVYLQMNSLKPEDTAVYYCAATRSVRISGDGYLGYDYWGQGTQVTVSS	high polyreactivity
QVQLVESGGRLVQARGSLRLSCAASRSTFPFYYMGWYRQAPGKERELVAAHTRRCGSTYYAVSVKGRFTISRDNGKNTFYLQMNSLKPEDTAVYYCAADDYTITIYYILDYWGQGTQVTVSS	low polyreactivity
QVQLVESGGGIDQAGGSLRLICAASGRTFTQYAMRWSRQAHGKERELVAAITRSGGSTYYADSVKGRFTISRDNAKNTVYVLMNILKPEDTAVYYCAKRPAYRSTQTFDFWGQGTQVTVSS	high polyreactivity
QVQLVESGVCLVQAGGSLRLSCAASGFTYYFYTMGWYRQAPGKERELVARITARGGSTYYADSVKGRFTISRDNAKNTVYLQMNSLKPEDTAVYYCAAVTYFGWYPYRMEYWGQGTQVTVSS	high polyreactivity
QDQLVESGGGLVQSGGSLRLSCAASGSILWSYAMGWYIQAPGKERELVAANTSGGSTYYADSVKGRFTISRDNAKNTVYLQMNSLKPEDTAVYFCAADRWRDFWFNEEYWGQGTQVTVSS	high polyreactivity
QVQLVESGGGLVQAGGSLRLSCAASGSIFLFNAMGWYRQAPGKERELVAAINRDDSTYYADSVKGRFTISRDNAKNTVYLLMISLKPEDTAVYYCAAPVLHAYYGYGYWGQGTQVTVSS	low polyreactivity
QVQLVESGGGLVQAGGSLRLSCAASGSIFSSNAMGWYRQAPGKERELVAAITRGGRTTYADSVKGRFTISRDNAKNTVYLQMNSLKPEDTAVYYCAALHGRYPNRYDYWGQGTQVTVSS	low polyreactivity
QVQLVESGGGLVQAGGSLRLSCAASGITFGANTMGCYRQAPGKERELVSAITISGGITHYADSVKGRVTISRDNAKHTVYLQLNSLKPEDTAVNYCAAGAYWRLYPYRQRNGGRRYYWGQGTQVTVSW	low polyreactivity
QDQLVESGGGLVQAGGSLRLSCAPSGFIFEYNAMGWYRQAPGKESELVADISFSGGSTYYADSVKVRFTISRDNAKNTVYLQMKSLKPEDTAGYYCAARALASVSAHKYDYWGQGTQVTVSS	low polyreactivity
QVQLVESGGGLVQAGGSLRLSCAASGLTFQNNARGWYRQAPGKERELVAAISDGGSTYYADSVKGRFTISRDNAKNTVYLQMNSLKPEDTGVYYCNADYGGWDYLYTSDQDNEYGYWGQGTQVTVSS	low polyreactivity
QVQLVESGGGLVQAGGSLRLSCAASGFIFYPYVMGWYRQAPGKERELVATIRTDGRTSYADSVKGRFTISRDNAKNTVYLQMNSLKPEDTAVYYCNTKYVRYYRRYDSWGQGTQVTVSS	high polyreactivity
QVQLVESGGGLVQAGGSLRLSCAASGLIFSFYDMGWYRQAPGKEREFVAAISGSGGSTYYADSVKGRFTISRDNEKNTVYLHMNILKPEDTAVYYCAAEYFTFYWKLDYWGQGTQVTVSS	high polyreactivity
QVQLVESGGGLVQAGGSLRLSCAASGSTYGYTMGWYRQAPGKERELVADITSGGTTNYADSVKGRFTISRDNAKNTVYLQMNSLKPEDTAVYYCATRGAEWGWLGSIFNPFDYWGQGTQVTVSS	low polyreactivity
QVQLVESGGGLVQAGGSLRLSCAASGYTFLDYAMGWYRQAPGKERELFAAINSGGSTYYADSVKGRFTISRDNAKNSVYFQMNSLNPEDTAVSYCAREDYVSYRLLYYLFDYWGQGTQVTVSS	low polyreactivity
QVQLVESGGGLVQAGGSLRLSCAASGRIFDGNAMGWYRQAPWKERELVAAINRSGGRTYYADSVKGRFTISRDNAKNTVYLQMNSLKPEDTAVYYCATPYAGGTPADPGYDYWGQGTQVTVSS	high polyreactivity
QGQLVESGGGLVQAGGSLSLSCAASRLTFYSNAMGWYRPAPGKEREMVAAISWIGASTYYADSVKGRFPISRDNAKNTVYLQMNSLKPEDTAVYYCAARAQARVFGWRFYYWGQGTQVTVSS	high polyreactivity
QVQLVESGGGLVQAGGILRLSCAASGRIFQHYPMGWYRQAPGKERELVAAISRSGDSTYYADSVKGRFTISRDNAKNTVYLQMNSLKPEDTAVYYCKIVRYSFLYDSWGQGTQVTVSS	high polyreactivity
QVQLVESGGGLVQAGGSLRLSSAASGRTFWRYGMGWYRQAPGKERELVAAITDSGDSTYYADSVKGRFTISRDNAKNTVYLQMNSLKPEDTAVYYCAASDVVFALNGYYPGEDDYWGQGTQVTVSS	low polyreactivity
QVQLVESGGGLVQAGGSLRLSCSASGSIFPFNAMGWYRQAPGKERELVAAIRWSDGRTYYADSVKGRFTISRDNAKNTVYLQMNSLKPEDTAVYYCAAKSYWGQGTQVTVSS	high polyreactivity
